This note sets out measurements from a protein production outcome set (Wang et al. 2014).

A short description of this series: label from the status in PepcDB records.
With “MFTDLDLALFFIIIFIVLFIGYIAYFWRKPDDIHKHGEWSLGGRRFGTVVVWFLLGGDLYTAYTLIAVPGAAATPGIGGGAFAMFAITYGIMIYPIVYGTMPRLYNVSKKRGYITAADFVKDRFSSRFLAMLIALTGVLAELPYIALQITGIKYVLASLSLPISISLIIAFLLVAGFTFVSGLRGPALTAIIKDAIIWAAVLVIIVYIPLKLHGFGNIFSKAATISPNLLDISPTIDIGYVSLALGSALALFLYPHAVTGTLGSKDVKTIKRNAALLPLYNVLLMFVAIIGIMSVVYFNAYPKVSSEALPLLVLHVFPSTFTAFAFAAIVVGSIVPASIMALASANLLTRNLYLEYINPNATEKAQTNLSRVLVVVVIVAALAFSLVPAASGEIVYLQTIGGAIIMQTLPSVYLALFTRKLNKYPVGLGWLAGLATTMILLVDLHFKTSLYKGFFFMYVGIIALLINLAVVGLGMLIMAAMHRIKNEGIIEDHEFLDE”, the protein production result is “failed”.
On to “MFTTTSFPDFDSAAQATLTYLHQRMGLSLWMITRTEVDNWIVLQAQDNGYGVKRGDVFHWPDSFCSRMVRGEGPHIAPQSNLVEAYRNAPIAQQVDIGAYVGVPITYGNGSLFGTLCAIDPEIQPDSLVDELPLVELIAQLLSTILDFFLKAEIASRREEYQQLLKERDGTTGFYSLSGWEKLLASEEIRCQKFGFPVSVIIVEVEAAEPKGEEPINDLILQRAAKIIKTVCRQDDFCARIGEREFAILCIECHISQADFIRERLALGFEQGKITADIGIGERSPEKGLLDAMETAKSAAHEQKKFRVKTEG”, for which the protein production result is listed as “failed”.
As for “MFVAFNFNKIESITTEKEFKIILNDQIALGKIPDFSKIKITIKVNKDDLKYLDLNKIILFIEASSIKIPGSYKLPIKIKNLNSIHIAEYKLSKTNVLLNLDNKVSKLVKIEPKFKLEHHHHHH”, the protein production result is “failed”.
“MFVAREHELQVLEKLFTSDSFEMVVLYGRRRVGKTALIDEFVKDKRVLYFTAIQQSAKMNLEDFSRAALSFFGMPDSTPSFGGWSDALSFVAERAAQTDERMVFVFDEFPYAAAAEPALPSMLQIAIDHGFLATKVTMILSGSNEGFMENDVLGRKSPLYGRRTAQIRLLPFDYADAAKFLTNTSPQELVQYYATFGGTPYYLARIQEADGFESNVLRLMFDNLGVLREEPMMLLRQELREPASYYSILQSIAGGNSSPKLIAEHAGVGSDSIGAYLKTLVDLRLIERKVPFGEDPSKSRKGMYVVSDPFFAYWFRFVGRNMSILDGNISEEVTSRLAFGPAFDTYVGQQFETICLQWLIRNNAMGNLPFVATQFGKWWGNDPIAHEQTDIDVIAADSLDKTILFGECKWRNSFNETEAIEKLHQRAGLVRGYQAGNAWLMLFTKNPVSESTRTRYMDDERMVFVSAEELYTALEHHHHHH”: the protein production entry is recorded as “failed”.
In the case of “MFVELNNLLNTTPDRAEQGKLTLLCDAKTDGSFLVHHFLSFYLKANCKVCFVALIQSFSHYSIVGQKLGVSLTMARERGQLVFLEGLKSAVDVVFQAQKEPHPLQFLREANAGNLKPLFEFVREALKPVDSGEARWTYPVLLVDDLSVLLSLGMGAVAVLDFIHYCRATVCWELKGNMVVLVHDSGDAEDEENDILLNGLSHQSHLILRAEGLATGFCRDVHGQLRILWRRPSQPAVHRDQSFTYQYKIQDKSVSFFCQRNVSCCSVT” it was “not failed”.
In the case of “MFVGREQELASLEEFYAKDGIGMTVIYGRRRIGKSTLITEFVKDKKTVFYTATKIGKARNLELFSKQVLDLFMPGIENISFNSIEAVFDFIDKNIANDKIVLVIDELPYWAEKDDSLLSILQKYIDTIWNDKNLKIILCGSALSFMENKVLSEKSPLFGRRDSQIKLESFNYLDSAKFVPNYSNEDKAICYGITGGVAKYLSMIDPKKNIDENIIRLFFRTDGYLYDETRNLLTQEFSDISLVNNIVEQIASGVNTLNTISGKINEKEPTVLYSLEKLISVGLIEKKKCITEEKNKKKTQYVLKDYMFKFWYEFIPKATSVIEMGQGALYYQKAVKPFLHSFMGSVFEEMCRYYTLNQGITGAYGCFVTSVGTWWGVENITDKNGYIRAQSADIDIVALSDIDKKAVIGECKFKNEKIDKGIYETLVRRGTLISNKYKISKYIFFSLSGYTDWFNSLSDEDVLLLTLDSLYR” it was “failed”; in that of “MFVIGIPTLNEADNISRLVKQIDEYAVNLGKEIIIINSDSKSTDGTPQIFLETKTYNTKVSIVSEAKGKGYNVRNIFEYAINHVPNFSGLILIDGDVVSMKKMWLEKMFIAIESGNDLIIPNYARKSFEGNATNHFIYPMLVKIFKRDMPYQCISGDFGFSRGLIKDLTLKCNWHKYTLGYGIDIFLTLTAILKSYKIKEIDLQSKIHKKSFEKIEKIFLEVSQSFFETINDNSLNQDKLRLNINFESHSRQFIKSSDILSSNDIENLKLRALFLLQEEKQYLHGLSEVEWDGILSNTINNIYRYSSEEHSLYLLPLYLLRVYNYLKYN”, “failed”; in that of “MFVSHGAIVKSAPKHWNGSKCPIRMQVRVPDPDRRSLLRAGAHIILGGLLATVIPGTSPSIAKIREKPTDKGEEAPKIDDEKELDKYVSGLKYEEELYENPDPAEKEVYRTPRVEREPEYKKKEDEILEKESKVLKEEAREAARESEVLRQEFEKR”, “not failed”.
Take “MFVVANIVVGIAKILDAILNLYFWVIIAAAVLSWVNPDPYNPVVRVVRNLTEPVFYRVRKWLPFTYVGGLDLSPLVVLLGIQIINSVLVQSLYQLAVRLY”: the protein production result is listed as “failed”.
With “MFWDSSRLIKLIGFFCLLLAQPLHATILSSALLNEAQQLAEIEPAQAKQAAKNYLSQRELTERKESGSPSAMSREETDRSIRTPASTIEAHKIIAQADYTMGNVRSAIDNLNEAEKLAKEYQLPYMTLDVQLMRNQMIWMYDHNYSAAEDALNQIEKQLDEADSVLQRTDSVRYRLVMQRALLAAHRGDNVGAERLYAQAKSMLEDSRSDLALIDYYTSVGEFYLNSKKYNLALSELLYGYWQSIESDSGTRLAKVNRLLARLFQERRVYDKAIEYLSQAADFYDSYPSSPILADVLEQMGDIYFYQGKFNLALVHYFNVLDHESTSRNINRTIKIRLSLAATYLQLYNYALAEQYLERATELLEYADIPQLEAKAALLKSGLAYHQNDSKKVIENAKKALELVEKAPENKNFIKQQSYRLLGLGYEQAGEYQLSLQAYKKYTSLVRLEQKQLNQISEDAFRQQKEFAEQTIHYVGQSERLEQVEMEHRKFQKISFALFITVLVMFLFIMRRGVIMQRQAGEIEKLRNDLFTHSRSRLRNLRMLNVKLSRSLKKSRDTFEQWQMGELIHEPLNDRLRFVMIDLPFLRSMYVQNGYKAGLELERAFGEYLAERIEKPARLYHFSDANLLYIEPNADRDASAEVMFEKFQAWVDEFATQHNVNRIIRMGISDYPFLPRAYTAINDEELLDLLLLATHIAREVSLKDKQSHWVFLKAIDNAPAASFATGNIRTACQHAINQGLIKIHSSYKNEDDIKKILKNG”, the protein production entry is “failed”.
In the case of “MGACMKPIGSDGKPIPTPPSLLSFWEVVGVYGRLGLWLGALFIGAVGIFILMDQPPFVQMDWSGLVQQVAAVVALIAIVIPALQVFFALTNRASGSLRPGRYGRLFERRFARFTPQQIEDILQDARAILATMSDSPKRRAWARWVEWLEQRSNLPLAERSGLKIGVYHPRRSKLWIDGAGVALVGALGSWLIWDQRSWMGWAFLGVLGSLFTWGLLATLTERLELSDDSLSYYAFRRQQWSVPRQHVALREAGSSEYQIYDVRTGRLLGEVKGETFGADIVEALADLFPPWLGDEVG” it was “failed”; in that of “MGAFFMSVVSAFAGAAEACRPTGALQNVEVARVVDGDTVRLRDGRSVRLIGINAPELAHNGRTTEPFAEAAKQRLQALVSASDGRLALQPGRQARDHYGRTLAHLFDASGANLEARLLGEGLGYLVAVAPNTELTACQQAAERAARSANLGVWKRSPVLSLDRLAQSGFAVVRGRVLEVERNRGGIWLEMDGPLVLRIEPKVLKAFDAKRVMQMAGRSLEVRGWVVDRSRRGAVPAGKARWQMSVTDPAMLEWLPLEHHHHHH”, “failed”; in that of “MGAIEDIYEDLETDVPEEEFREAVEEKVEQMGGLADEETAAMLLAHELNENEVNAIADIEPGMDEVKFLAKVMAIGDLKTFERDDEDEDGRVINVEAADESGSLRLAFWDGQAVDIDEGKLEVGDVLRVKGRPKDGYNGLEVSVDKAEPDEDATIDVEPGAGSSIDALTMGQSDVTLRGLVLDTDSIRTFDRDDGSEGRVSNLTLGDETGRIRVTLWDDRADRADELDAGAAVEIIDGYVRERDGSLELHVGDQGAVDEVEDDVAFEPDADPIAEVELEETADIAGVVRSADPKRTFDRDDGSEGQVRNVRIQDATGDIRVALWGDKADKDIAPGDEVLAADVEIQDGWQDDKEASASWNSTIVVLDDGADLATGGAGGGASAETTDAEHAGLSSFGDEGDDTDADSSGNEAAAVSAGTGDTSPDGGAQSAGQQVEFTGTVVQTGDPVVLDDGEQTMSVETGERVQLGQEITVRGELRDDRLHAEDVFLEHHHHHH”, “failed”.
Regarding “MGAPPPANEDDRLAALHSYNILDTAPEPLYDDITAAAAQLCRTPMALISLIDQDRQWFKSRVGMQPAETPRDLAFCAHAILQPDQMMEVGDTFVDPRFARNALVTGGPQIRFYAGAPLLTSDGVALGTLCVLDRAPRTLSDAERTALQALARQVVTTIELRQAARLLEGDALRDPLTDLWNREGLEHMLEDAAPVAKLHGLAFVLIEIDGFKRLKLQFGSDAADATLVQAARCIETEPQEPGGVARIGAAHFCMVLPGADSAQALASVQRLQTTIAAACWPADTISITAGLVCVAPGEPLDSHVLMARARHALLGAARAGRNCVQRFDGWQTDR”, the protein production result is “failed”.
With “MGAVGRGRRMSERHLRRSTHKVGDITLGAVHRLNCHCGAVQIDLDLPHGLVDPRRCDCSMCRRRGAIVASVPLQGLHVRQGEDVLRLYQFNTHAAAHYFCGVCGIYTHHRRRSNPNEYGYNVGCLEGVNPYALNITVPVEDGIHHPADRVAPQLEHHHHHH”, the protein production result is recorded as “failed”.
Consider “MGAVVVEPGSSSMVLGPEQVLDRASMHLANGLLGNPDSAAGLEVLLGGLKLRFVSGSAVAVTGAEGMVTLDGTELPLNKAVRVPPGAVLELGPAMFGIRYYLAVQGGISAQGEAAQGEAIRAGAALTFGRPNNHGSPEVNHPARRALDPERPVVARVSRGPQAQNDDAGTWLRLTSEPWILSPESDRAGARLVGRPLDVTSAPIPQAQPLVSGSVLLPSSGLPVIALAGHPDTSQSPVIAVVRDEDLDVLGQARPGQMVHLLG”, for which the protein production entry was “failed”.
For the sequence “MGAWRFWWDSTRRFYKNWGSYVALIFSTNLVISYLAIPFFNWVLEMLLKWQRVSYVSYTNIGSIIIHQPLAALGMVAILLAIIILVYWQFAFLLLGIMNIFRGRPQTVRAVLRSTVTSLTGTSPSTFLFFIGYFIVILPFGSFIFTTPLLNKAKIPAFIVSYLMENPWMTLGLGCFYLLAGYLGIRLISLLPLMIVDRLPWKTAVTRSWQQTRHHLWRYLWTMIVTLFMIFLIVTTIYTLIYVAQLQFDKTSFAMAAATVNLFIMEAITEIIICYTTAIFMMLIIVCYRQDFTLLRQQPQYFNEAPRLRKLTRASVAIGLLLATSLLVAVNLVYLNGLVITKPIMISHRGVDNGNGVQNTIPALIKTSKEHPDYVEMDIQVTKDHQFVVMHDPTLKALAGVKKKPSQLTLKQLEKITVRENGYQAKIPSFDAYLKAAHKHHQKLLVEIKTSSAYTAADTKRFIDRYGATLLAHHDQVHTLSFKVMRDLKRLDQKQFVSYILPYNLTFPHTVANGYTMEVTTLNDQFVDKADRNHKTVYAWDIDNTDQMDQMMFMGVTGVVTDNLTEMQQEVKSNTDHPSYAKLLLTFMNELSLTSNE”, the protein production result is “failed”.
For the sequence “MGCAEEKKTDVRWATFNIRYDNPQDSLNNWQYRKDRVCQFIKDHELDIVGMQEVLHNQFQDLRAGLPEYDGIGVGRDDGKTAGEYAPLFYRKDKYEVLDSNTFWLAENPDSVGMMGWDAVCVRIATWAKFKDKATGKIFMAVNTHFDHVGEEARRQSALLIIRKIKEIVGERPAVVTGDFNVTDASDAYETITTNEFVMKDAYKTAARVTGVDYTFHDFARIPAEDCEKIDFIFVTPQVLVKSCEIPAEVPEALLSDHNPQLADLELEHHHHHH”, the protein production entry is recorded as “failed”.
